The values that follow come from the nanobody polyreactivity screen of Harvey et al. (2022).

This data set in a line: yeast display, Sf9 membrane polyspecificity reagent, FACS + sequencing; frameworks hold sequencing errors. The method, boiled down: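 Polyreactivity labels are assigned by the sorting gate from which each nanobody was recovered. The gates were low and high (top ~1%), set on anti-HA fluorescence for expression and streptavidin fluorescence for reagent binding. Before sorting, galactose-induced (36–48 hours) yeast display cells were stained for 1 hour at 4 °C with 10% biotinylated, detergent-solubilized Sf9 membrane reagent.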
“QVQLVESGGGLVQAGGSLRLSCAASASISDSYAMGRYRQAPGKERELVAAITSGDSTYYADSVKGRFTISRDNAKNTLYLQMNSLKPEDTAVYYCAKRVSRGRGYGFTDWSEYDYWGQGTQVTVSS”: the “polyreactivity (PSR sort gate)” value was “low polyreactivity”. Turning to “QVQLVESGGGLVQAGGSLRLSCAASGFIFSLYAMGWYRQAPGKERELVAAISKRGGSTNYADSVKGRFTISRDNAKNTVFLQMNSLKPEDTAVYYCAKARPGFLYDHWGQGTEVTVSS”, the “polyreactivity (PSR sort gate)” value is recorded as “high polyreactivity”.

With “QVQLVESGGGLVQAGGSLRLSCAASGFTFSTNAMGWYRQAPGKERELVAAITWRGGSTYYADSVKGRFTISRDNAKNTVYLQMNSLKPEDTAVYYCARRSRGSHVSYYKKFDYWGQGTQVTVSS”, the “polyreactivity (PSR sort gate)” value is reported as “low polyreactivity”. Turning to “QVQREESGGGLVQAGGRLRLTCAASGSIFGYYVMGWYRQAPGKERELVAAITRSGSTYYADSVKGRFTISRDNAKNTVYLQMNSLKPEDTAVYYCYADVYWPGTPYTHDYWGQGTQVTVSS”, the “polyreactivity (PSR sort gate)” value is recorded as “low polyreactivity”. To “QVQLVESGGGLVQAGGSLRLSCAASGSTFLYYAMGWYRQAPGKERELVAAITSSGGRTYFADSVKGRFTISRDNAQNTVYLQMNSLQPEDTAVYYCARGWPRREQSEYDYWGQGTQVTVSS” belongs “high polyreactivity”; to “QVQLVESGGGLVQAGGSLRLSCAASGISFSANAMGWYRQAPGKEREWVAAISASGGSTRYADSVKGRFTISRDNAKNTVYLQMNSLKPEDTAVYYCATRRTSRSKWRHYWGQGTQVTVSS”, “high polyreactivity”.

Consider “QVQLVESGGGLFQAGGSLRLSCAASGGIFYGNVMGWYRQAPGKERELVADITSVGSTYYADSVKGRFTISRDNAKNTVYLQMNSLIPEDTAVYYCAAEPDHVADSHSGYDYWGQGTQVTVSS”, for which the “polyreactivity (PSR sort gate)” value was “low polyreactivity”.

Turning to “QVQLVESGGGLVQAGGSLRLSCADSGSTFLYYAIVWYRQAPGKERELVASITGSGSNTYYADSVKGRFTISRDNAKNTVYLQMNSLKPEDTAVYYCASDPQSDIPSWLWYWGEYDYWGQGTQVTVSS”, the “polyreactivity (PSR sort gate)” value is on record as “low polyreactivity”. Next, “QVQLVESGGGLVQAGGSLRLICAASGIIFRVYAMGWYRQAPGKERELVATITWSGGSTFYADSVKGRFTISRDNAKNTVDLQRNSLKPEDTAVYYCAARGYLRGEQLYVLIRYDYWGQGTQVTVSS”: “low polyreactivity”. Next, “QDQLVESGGGLVQAGGSLRLSCAASGLIFVGYALGGYRQAPGKERELVAAITSGGSTKYADSVKGRFTSSRDNAKNTVYLQMNSLKPEDTAVYYCAASGWRNWWSARNYYWGQGTQVTVSS”: “high polyreactivity”; “QVQLVESGGGLVQAGGSLRLSCAASGSTFAVNAMRSYRQAPGKEREFVAAISFGTGSTYYADSVKGRFTISRDNAKKTVYLQMNSLKPEDTAVYYCNAEASGYYWWWGYDYWGQGTQVTVSS”: “low polyreactivity”; “QVQLVESGGGLVQAGGSLRLSCAASGSIFTPNAMGWYRQAPGKERELVAAISWSGARTYYADSVKGRFTISRDNAKNTVYLQMNSLKPEDTAVYYSYAFGSWGQGTQVTVSS”: “high polyreactivity”.

In the case of “QVQIVESGGGLLQAGGSLRLSCAASGGIFGRYAMGWYRQAPGKERELVAAITTRGTSTYYADSVKGRFTISRDNAMNTVYLQMNSLKPEDTAVYYCSAAYGRHPSSGSWGQGTQVTVSS”, the “polyreactivity (PSR sort gate)” value is given as “high polyreactivity”. To “QVQLVESGGGLVQAGGSLRLSCAASGSTFGHYVMGWYRQATGKERELVAAISYNGGSTYYADSVKGRFTISRDNAKNTVYLQMNSLKPEDTAVYSCAARGSYSFYRRVDYWGQGTQVTVSS” belongs “high polyreactivity”; to “QVQLVVSGGGLVQAGGSLRLSCAASGGTFGGYAMGWYRQAPGKERELVAVITQRGGSTSYADSVKGRFTISRDNAKNTVYLQLNSQKREDTAVYYCNASAWLVVARTRYGYWGQGTQVTVSS”, “low polyreactivity”; to “QVQLVESGGGLVQAGGSLRLSCAASGRIFYNNVMGWYRQAPGKERELVAAISGNGGSTYYADSVKGRFTISRDNAKNTVYLQMNSLKPEDTAVYFCAADDLYTDYETWWRRGDYWGQGTQVTVSS”, “low polyreactivity”.
